Laboratory results taken from the supplement of paper PMC9112550, “Optimization of the antimicrobial peptide Bac7 by deep mutational scanning” (BMC Biology, 2022).

System: Escherichia coli TOP10
Assay: shrunken log2 fold change of peptide-encoding DNA abundance (4.5 h post-induction vs induction); higher = less antimicrobial activity (less host growth inhibition)
Conditions: time post-induction: 4.5 h; library: site-saturation at positions 5, 18, 19, 20
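Note: peptides expressed intracellularly from a pBAD plasmid library in pooled LB shake-flask culture, induced with 0.3% L-arabinose, DNA abundance read by NGS, three biological replicates, DESeq2 with apeglm shrinkage.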

Sequence | shrunken log2 fold change
RRIRKRPPRLPRPRPRPLIEPRP | 0.105
RRIRVRPPRLPRPRPRPEQFPRP | 0.0357
RRIRKRPPRLPRPRPRPQRTPRP | 0.419
RRIRFRPPRLPRPRPRPLFVPRP | -0.424
RRIRIRPPRLPRPRPRPHKQPRP | -0.0164
RRIRKRPPRLPRPRPRPHRNPRP | -0.167
RRIRDRPPRLPRPRPRPWHPPRP | -0.0206
RRIRSRPPRLPRPRPRPPEMPRP | 0.265
RRIRARPPRLPRPRPRPFMLPRP | -0.0197
RRIRARPPRLPRPRPRPPCKPRP | 0.204
RRIRPRPPRLPRPRPRPPPSPRP | 1.12
RRIRQRPPRLPRPRPRPAYNPRP | 0.018
RRIRIRPPRLPRPRPRPRFMPRP | -0.143
RRIRERPPRLPRPRPRPEEMPRP | 0.0169
RRIRLRPPRLPRPRPRPRNNPRP | 0.019
RRIRMRPPRLPRPRPRPDPGPRP | 0.46
RRIRKRPPRLPRPRPRPLDIPRP | -0.0215
RRIRPRPPRLPRPRPRPRARPRP | 0.58
RRIRNRPPRLPRPRPRPDGAPRP | 0.0931
RRIRRRPPRLPRPRPRPLFDPRP | 0.136
RRIRHRPPRLPRPRPRPHLCPRP | -0.0468
RRIRKRPPRLPRPRPRPSWNPRP | -0.15
RRIRPRPPRLPRPRPRPIGGPRP | 0.00483
RRIRDRPPRLPRPRPRPTRYPRP | 0.317
RRIRGRPPRLPRPRPRPTHEPRP | 1.34

Sequence | shrunken log2 fold change
RRIRNRPPRLPRPRPRPDALPRP | 0.0233
RRIRDRPPRLPRPRPRPIWPPRP | 0.0998
RRIRNRPPRLPRPRPRPCWRPRP | -0.174
RRIRLRPPRLPRPRPRPVMGPRP | 0.256
RRIRKRPPRLPRPRPRPNEPPRP | 0.027
RRIRVRPPRLPRPRPRPSQEPRP | -0.549
RRIRRRPPRLPRPRPRPWWQPRP | 0.0834
RRIRQRPPRLPRPRPRPGYDPRP | -0.0645
RRIRCRPPRLPRPRPRPGVKPRP | -0.0157
RRIRLRPPRLPRPRPRPTRPPRP | 0.828
RRIRRRPPRLPRPRPRPCRYPRP | -0.0616
RRIRFRPPRLPRPRPRPPWWPRP | 0.651
RRIRIRPPRLPRPRPRPDYYPRP | -0.155
RRIRSRPPRLPRPRPRPLDHPRP | 0.0458
RRIRDRPPRLPRPRPRPTRFPRP | 0.0657
RRIRSRPPRLPRPRPRPPAQPRP | 0.922
RRIRYRPPRLPRPRPRPFLQPRP | -0.218
RRIRHRPPRLPRPRPRPDDHPRP | 0.0155
RRIRMRPPRLPRPRPRPVRVPRP | 1.74
RRIRGRPPRLPRPRPRPHLTPRP | 0.357
RRIRDRPPRLPRPRPRPVRSPRP | 0.155
RRIRLRPPRLPRPRPRPLCPPRP | -0.0651
RRIRIRPPRLPRPRPRPCGHPRP | 0.00489
RRIRKRPPRLPRPRPRPGYTPRP | -0.0679
RRIRYRPPRLPRPRPRPAGYPRP | 0.0815
